Results from PMC3629710 (2013).

Biological target: Abi2-SH3 domain (AbI2B) (SH3 domain array) (Homo sapiens (Human), UniProt Q9NYB9-1)
Assay: SH3 domain array (far-western overlay)

Sequence of Abi2-SH3 domain (AbI2B) (SH3 domain array) (Q9NYB9 451-510): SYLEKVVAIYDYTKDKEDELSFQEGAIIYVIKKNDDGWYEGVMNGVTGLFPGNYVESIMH

B1: His-tagged-p130Cas-P2 domain (protein)
chain: SLLFRRTKATAPGPEGGGTLHPNPTDKTSSIQSRPLPSPPKFT
binding result: binds
